The text below walks through data of the DeepSol protein solubility set.

A short description of this data set: soluble on expression in E. coli; label from the status in PepcDB or PDB records.
On to “MSLGSVNRVYLARLSRMSVLGPLGESFGRVRDVVISISIVRQQPRVLGLVVDLATRRKIFIPILRVAAIEPHAVTLSTGNVSLHRFEQRPGEALALGQVLDTLVKVNDPALPELAGVDVVVTDLGVEQTRSRDWMVTRVAVRTQRRLRRRCPVHVVDWHNVAGLTPSALAMPGQDVAQLLDQFEGWKAVDVADAIRGLPPKRRHEVFKALHDKRLADVLQELPELDQAEVLSQLGTERAADVLEEMDPDDAADLLAVLNPTEAELLLTRMDPGDSGQVRRLLTHSPDTAGGLMTSDPVVLTPDTSIAEALARVRDPDLTPALASMVFVARPPTATPTGHYLGCVHLQRLLRDPPAELVGGVVDTDLLTLTPETPLAAVTRYFAAYNLVCGPVVDDENHLLGAVTVDDLLDHLLPHDWRVDMPELDPSGAPDRPGGPREGHHHHHH”, for which the “soluble on expression in E. coli” value is recorded as “soluble”.

In the case of “MMTKNAYAFVVIEESVMVFKRTKDEGLMPIFEGFVPLKEGFLKSFKERCNLEFLENLDLLFLYDKPSAHEIFSLCKELKNSIWDRKLVVALVEALEGFKDWNLSLKIEDKRSNSLGNGTKKLLTNADLGSDYKTIVIDSMKTYHQSQQEKYKRERGETLEVRPTTPPSYGGGSIRISGDKKPDFDEENF”, the “soluble on expression in E. coli” value is listed as “not soluble”.

For the sequence “GLGGFTRTRNKGKSNVIDMIQKYIESKGMPIENWDITVGYCTNLEEAEKYRDDVEAQLGVKLLERREDFKTRISIISGCHTGPYALGIACIPKYTTIRL”, the “soluble on expression in E. coli” value was “not soluble”.

Turning to “MIKAILIFNNHGKPRLCKFYQHYSEDTQQQIIRETFHLVSKRDENVCNFLEGGLLIGGSDNKLIYRHYATLYFVFCVDSSESELGILDLIQVFVETLDKCFENVCELDLIFHVDKVHNILAEMVMGGMVLETNMNEIVTQIDA”, the “soluble on expression in E. coli” value was “soluble”.

With “MGSDKIHHHHHHMNRVVVGLQWGDEGKGKVVTYLSRYHDIVARFSGGANAGHTVNYGDFKVIHHLLPSADFTKNRGIAIGSGVLLDPQVLTEELRELKEKFPDYSGEIFISESAHVVLPVHKEMDRIIDEVLKIGTTKRGIGPACADRVMRVNVRVAELGNEEKLRYFLEKNLSLKKIYGVDFDAEKMMGDLSTFYETIKDFVVSPVQLKRILEEKSVLFEGTQGVLLDLDVGTYPYVTSMNCSSSGVSAGMGFPVEVDEVLGVFKAYTTRVGEGPFPTELTGEEGEKLRKAGHEYGSTTGRPRRCGWLDLPLLRYAIEISGVDSLVMTKADVLNGFEKIKVCVRYSDGRDLVSLRDLEKKEPVYEVFDGWKSLEDKNFERFVDFIERETGRPVRYISTGEKLEDIVEV”, the “soluble on expression in E. coli” value is on record as “not soluble”.

Turning to “MKPLTYTLVVNGPQYGTQSARNAYLFAKALIEKGHILKSVFFYQDGVLNGSSTHVPANDEFNLLQGWQSLAQSHQVQLETCVAAALRRGVVSEQEASQHGLASHNLAAHFTQAGLGSLAQALLEQDRVVQF”, the “soluble on expression in E. coli” value is on record as “soluble”.

With “MSLSTTPGLYAVIKLTHLYLPGTLKIHHLKGQLLDQFSIGEMEYQHQGTKIKIFNLAVNWRFSSLLHKKLPIDSMSAEMIEINQKTPMLILKNIKLSGYLNQQSIKLNTLQFNYWNQLITSQLELSNSFPHVFSGKIRLNPHSTNKNIFSGGVDIGGNRNQIQWGGEFEGPGKITINGSLQQLKQIKQIIKWRDLHWQDNKNHNLKSSQGRIEVSGTIPNLAIDLKSKLGIDQLKNWQMNAAIKGKLPWQWNINATFSQPLDFSSKLDGLYTKFALKMETKNDHHADFLITIAPGHYQMTENNLMPLIQFTGGNIKGSLSQKQFSGQGVLFLDAYKKVNFNFKFPEFNVYQDIAQQTIDAKLSILFNSLDFLQNASPYLINPKGQFLASIHAKGTLNKPIIESKLALNKGSFNIPALGLNITDMVLAVFSKKDGWEATGSIHSSEKKLTLKGQGIFNKELGGTVSIEGSNFPIANNKEFQVNISPQLQVRFTPSLCQITGTIQIPNAHIKPQTFTNSLVATDDIVFTSKNTQPITPLFNTNMSVRVEMGEEVELTFKGLHAYLAGIVTINQLSQGPITANGELTVRKGEYKAYGQDLSIEQGQLIFTGGRIDNPEINLRASKNISNSFGSVSGSSELFNFNNYNNLNVGNNFNVGVEVAGRLQSPKIQLFSNPPTLSQADILSFLVIGRPANQADKAKGQLLLTAISSMNLGTGTNGTQLLEQLKQKLGFDFNVQTTTNFNQQTNKISESTGVVVGKSLSDRIYLSYNVGLSQTDPNVLTLKYILNKFLSIQVSSSDSGNGVDILYTKSTSSPEEGHHHHHH”, the “soluble on expression in E. coli” value is “not soluble”.

For the sequence “MEEKKTESATKNVKKVNLLDHIAIKHLLDESVSDIVTSRGYKEDGSFTSTGLVVSSKLPRFSDQYTLTIDSADPQSISAGKSVQFTKSVTQWLTKDGVLVEGLFWKDVEALVKEYTEAGEPKKKR”, the “soluble on expression in E. coli” value is “not soluble”.

Consider “MGSDKIHHHHHHMIGQSLFIRGARGVTLTPSGERYFQDVTTILHNLMLATEKAADKSPKDSLYIHSSPSFGLLWLLPRLESFKEKFPMIQVNLSCSYENLHFTRDKIDIDIRHGLPNWTGVEIRTIRNEKLEVLASPKLLERSPVHKPQDLLKKELILSRSTLVTWPQWFAHQGLSIPEFPYTLSFDRSYMSLEAATHGLGFVLESNLLTQNYLESGKLVRVFADELSIPISAHHLVYPRTHQFIPKIELFLNWIHDELAG”, for which the “soluble on expression in E. coli” value is listed as “not soluble”.

On to “MSDSDSVGESSHPKKTAPKKEKASPKNKKDDANESMVMTEEDRNVFTSIDKKGGGSKQMAIVDIYQKKSQLEHILLRPDSYIGSIEHTEKKPMWVYNMEDSKLEQRDISYVPGLFKIYDEILVNAADNKQRDRKMNTIRVTINKAKNEISVYNNGKGIPVTQHKVEKVFVPELIFGSLLTSSNFVGNQKAMIGGRNGYGAKLCNIFSTKFTCETSSRVYKSAFKQTWINNMTRDEEPTIVPSTDEDFTKITFSPDLAKFKMKELDDDICHLMARRAYDVAATCKGVDVILNGEMISVKGFEDYVKMYTSQITFEGEPLKTVYEQIGNRWQVALALSDVGFQQISFANNVSTTKGGRHVDHVVDQMIARLKGSIKQELSKDVDPFMIENHLWVFVNCLIEWPTFDSQTKEMMTLRHDRFGSTCALSKKFCKTALQIGLIRQISREIGVDIRENLVQKASESSPIKCIPKLEDAKEAGTKTSERCTLIVTEGDSAKTLAISGLSVVGRDKFGVFPLRGKLLNVRDASVKQIAENAEVNAMIKILGLQRDLKYEFDDEFRTLRYGKLMIMADQDQDGSHIKGLIISFLHHFWPSLIQRNFVEEFITPIVKATKGKEEVSFYSLPEYSEWRTNTDNWKSYKIKYYKGLGTSTAKEAKE”, for which the “soluble on expression in E. coli” value is given as “not soluble”.

Regarding “MERRLIFGTIASKMSLAPEADLDSLIIRNDSLSGAVIAAIMQEAGLRAVRKNRYVILQSDLEEAYATQVKTDNTVDKFDFYK”, the “soluble on expression in E. coli” value is “soluble”.

As to “MVEDPYIWMENLQDNRVREIIERENKKFREFIGELSDKLFPEVWEYFSIPTVTMAKITKRGIIVSYNEKDRSIIRWLDGDVIVDSKEIEREVGDEVLLQGFTADDEGEKLAYSFSIGGADEGITRIIDLKSGEVIEEIKPSIWNILFLKDGYYFARFYRKEKTPDGVDPPAERVFWKDKEGEKMVFGEGLTSGYFMTLRKSSDDKFAMLTLNYGWNQGEIYVGPIDKPQEWRKVYSATVPVEPVDIVNGKLYILTREGRGMGKVIAVKDGEIEEVIPEGEFPLEWAVIVDDKIVAGRLVHASHRLEVYTLKGEKIEEVTFDIPGALHPLDKNNKEVLLRYISFTIPYRLYEFKDKLRIIEERKVEGKFKVEEDFVVSKDGTRIHYFIIKGEKDEKKAWVFGYGGFNIALTPRFFPQVIPFLKRGGTFVMANLRGGSEYGEEWHRAGMRENKQNVFDDFIAVLEKLKKEGYKVAAWGRSNGGLLVSATLTQRPDIMDAALIGYPVIDMLRFHKLYIGSVWIPEYGNPDDPKDREFLLKYSPYHNVDPNKKYPLTLIYTGLHDDRVHPAHALKFFMKLKEVGAPVYLRVETKSGHMGASPETRARELTDLLAFVLKSLS”, the “soluble on expression in E. coli” value is given as “soluble”.

Consider “MTQAVMLQGTASDVGKSVLAAGLCRIFYQDGLRTAPFKSQNMALNSGITPDGKEMGRAQIFQAEAAGITPDVRMNPVLLKPTSDRQAQVVLMGKVATNMDAVSYHDYKPRLREQILAVYNSLAQEYDVIVLEGAGSPAEINLRDRDIVNMGMAEMAQCPVILVADIDRGGVFAAIYGTLALLHKQERDRVKGVIINKFRGDVALLYSGIEQIESLTGVPVLGVMPWLDVDLEDEDGVALQNDKYRGNAPRDITIAIVQLPHISNFTDFNALAAQPDVRIRYIRRPEALTDVDLVILPGSKNTLSDLAWLRESGMADAVLQTHRQGVPVMGICGGYQMLGDTIVDEVESGLGTQPGLGLLNTITRFAQDKTTTQVNATMSGELPGWLAAAAGLPVRGYEIHMGETVLQEGCCTAMTLQKNGCSVADGAVTADGLAFGTYLHGLFDSDAFTRAVVNGLRARKGLAPWETTFCYADHKARQFDLLAEAMRQHIDIDKIYTIMQQHQEPV”, for which the “soluble on expression in E. coli” value is “not soluble”.

As to “MMTKYGVVGTGYFGAELARFMSKVEGAKITAIYDPVNAAPIAKELNCVATATMEALCSHPDVDCVIIASPNYLHKAPVIAAAKAGKHVFCEKPIALNYQDCKDMVDACKEAGVTFMAGHVMNFFHGVRHAKALIKAGEIGEVTQVHTKRNGFEDVQDEISWKKIRAKSGGHLYHHIHELDCTLFIMDETPSLVSMAAGNVAHKGEKFGDEDDVVLITLEFESGRFATLQWGSSFHYPEHYVLIEGTTGAILIDMQNTAGYLIKAGKKTHFLVHESQAEDDDRRNGNISSEMDGAIAYGKPGKRTPMWLSSIMKLEMQYLHDVINGLEPGEEFAKLLTGEAATNAIATADAATLSSNEGRKVKLTEILG”, the “soluble on expression in E. coli” value is listed as “not soluble”.

“MSLSKPLKAIIIGAGISGMVASVRLREMGIEHTIFEKNNEFGGTWWENRYPGCGVDTPNLTYTFSFRPNDWSAFFPLRDEIENYLLETARESGLYDRVRFGTKVERAEWLADRNQWQVTVRAEDGSEEVHHADIVMSAVGILNMPVVPDIKGLSGFAGRVVHTSDWPQDIDLKGKRVAVVGNGASAMQVVPAIADQVAELTIFARSKQWAAPFPQFRKPVPNGVRYLMQVVPLYRAWVEQRLSWTFNDRVHGTLFRDPDWKEPARAVNAINDGHREFFTRYVREELGERQDLLPLVLPDYPPFAKRMLLDNGWYRTLRKPHVKLVPQRLAEVRGHTLVAQDGQEIEADVLILATGFQAANVLGSYDVIGRDGRDLHEFWEGDNAAAYLGTLVPGFPNFFILLGPNVGSGHGGSMIRNIENQAHYATRVIEALVKSGADAVEVREDVYGDYKARIDAAHEKLVWTHPGATNWYRNSRGRVVAITPWRNDAFWRMTREARPEDLSFSGAEGHHHHHH”: the “soluble on expression in E. coli” value is given as “soluble”.

For “MIAKIIKGTSFSGVLAYILGKQEGKARILYADGVRANAQASDIANDFALQASMRPNVKKPVCHTILSFSAEDTERLSDKVMTDLAKEYLQRMGYADTQYLIVRHLDREHPHLHICINRVNNEGKTISDSNEKYCSTKVCKELTEANLLKWGEGKEAVKRHRLRGNDQLRYAIFDAIKAALPKCTNWQELTSELQKRGIEVQFKTKGQTEKVEGVIFSMDGVSFSGSHIDRSCSYSKLSFALEQNAKHALSLPALPKEDGFIEELSEAIEKLGENLFDSNAPAVDVAELIFQRKLRNQANKKLKRRRL”, the “soluble on expression in E. coli” value is listed as “not soluble”.

For the sequence “MSLMIRAITIFVTNYSKISDYTEKLSKLNDNNIWSKRISLPPTPIDLSLSKLIELLPTTHSEIIFSLINLQEKDKRLREIKDILKSDKRIYVHVLVKTTDNLKDLAKLIISLEPEEASRFALLFNQDFLLTPYFPTSSANTVYDSFGISLLYVDEFKQGKINEALSKADTIGRQLEKKLNIKYLGIDASLSPWMESSVGEIVESRSKKMFDISNLSAVAEINREIFEGVWRNRVNPIGFSELMLPIAEDNLLRERVKEGSLTLKDLLLMSYVCVAGIDMVGIYSDLVTYENILKSVYYIQYTKRKPYGVRMIPTNGSPVLTKMFGEIPEVKVVEGHHHHHH”, the “soluble on expression in E. coli” value is given as “soluble”.
